In one series the test system is Irrelevant GPCR. As to the kind of experiment: Transient-transfection CIFAT, irrelevant GPCR control (fixed and live cells). To be noted: cells expressing irrelevant GPCR. Format: binding. Here is the method:
(§1) Anti-LPAR1 antibodies of the invention were tested alongside commercially available anti-LPAR1 antibodies in the transient-transfection CIFAT assay for live cells (method 1.11) and in the transient-transfection CIFAT assay for fixed cells (method 1.11).
The results are shown in FIGS. 11 and 12, wherein the scale bar represents 100 μm.

Series [1] addresses T1, LPAR1 (Homo sapiens, UniProt Q92633). As to the kind of experiment: Transient-transfection CIFAT, fixed/permeabilised cells. Format: binding. Also on record: HA; expressed in transfected cells; host or cells: CHO-K1 (transient, PEI). To be noted: 5 μg/mL.
Series [2] deals with T1, LPAR1. The series is described as follows: BRET assay (G protein activation and βArrestin 2 biosensors). Format: cell-based. Also noted: expressed in transfected cells; host or cells: HEK293 (transient, PEI). To be noted: G13 biosensor. Here is the method:
Using polyethylenimine (PEI) transfection agent at a 3:1 ratio, HEK293 cells were co-transfected in suspension with hLPAR1 and one of the following biosensors: G protein activation sensors (Gαi2, Gα13, and Gαq) and the βArrestin 2-PM recruitment biosensor (+GRK2). Cells were directly seeded in 96-well plates immediately following transfection at a density of 35,000 cells/well. 48 hours post-transfection, BRET experiments were performed in both agonist and allosteric/antagonist mode. Using a plate washer, culture medium was aspirated and replaced with 30 μl of Hank's Balanced Salt Solution buffer (HBSS). Plates were equilibrated at room temperature for 60 minutes. For agonist testing, serial dilutions of the antibodies were performed in PBS and then added to each well. Antibodies were assayed at 12 concentrations in technical duplicates. Small molecules were added to each relevant well. Small molecules were assayed at 22 concentrations with each biosensor. Cells were then incubated with the antibodies or small molecules at room temperature for 60 or 10 minutes, respectively. 10 μl of 10 μM e-Coelenterazine Prolume Purple (Nanolight) was then added to each well. Cells were incubated at room temperature for an additional 10 minutes. BRET readings were then collected with a 0.4 sec integration time on a plate reader (filters: 400 nm/70 nm, 515 nm/20 nm). For allosteric testing (after agonist testing), an EC75 of the endogenous ligand (oleoyl-LPA) was added to each well already containing antibody or small molecule. Cells were incubated at room temperature for an additional 10 minutes. BRET readings were then collected with a 0.4 sec integration time on a plate reader (filters: 400 nm/70 nm, 515 nm/20 nm). BRET signals were determined by calculating the ratio of light emitted by GFP-acceptor (515 nm) over light emitted by luciferase-donor (400 nm). All BRET ratios were standardized with pre-established BRET values for positive and negative controls. The standardized BRET ratio is referred to as universal BRET (uBRET). Resulting dose-response curves were fitted using the three- or four-parameter logistic non-linear regression model in GraphPad Prism 9.
The inhibition characteristics of Antibody 12 were investigated by Bioluminescence Resonance Energy Transfer (BRET, method 1.15) and compared to a small molecule LPAR1 inhibitor of the prior art (BMS-986020), see FIG. 13. The upper lines are values recorded with LPA present and the lower lines are values recorded with LPA not present. […] This can only happen if the ligand (LPA) is also interacting with the receptor at the same time to enable some signalling. […]
(In general: BRET reads energy transfer from a luciferase to a nearby fluorophore.)

Series [3] addresses T1, LPAR1. As to the kind of experiment: LPAR1 binding affinity during discovery and affinity maturation, method not stated. Also on record: expressed in transfected cells. To be noted: stated in words.
Series [4] concerns the target T1, LPAR1. The series is described as follows: Transient-transfection CIFAT, live cells. Format: binding. Also noted: HA; expressed in transfected cells; host or cells: CHO-K1 (transient, PEI). To be noted: 5 μg/mL or 20 μg/mL. Here is the method:
CHO-K1 cells are seeded in multi well plates at 20,000 cells per 200 μL full growth medium and incubated for 24 hours at 37° C. In a sterile tube, 0.0309 uL/well PEI is diluted into 10 uL/well transfection medium (DMEM supplemented with 2 mM L-glutamine and Penicillin-Streptomycin). The diluted PEI is added to 100 ng/well DNA, before mixing immediately and incubating the mixture for 10 minutes at room temperature. 200 μL/well full growth medium is added to the PEI-DNA mixture, then medium in wells is taken off and 200 ul full growth medium/PEI/DNA mixture is added in the wells of the adherent cell plate. The plate is incubated for 24 hours at 37° C. The medium is discarded and replaced with 200 μL full growth medium. The plate is incubated for 24 hours at 37° C. Medium is removed from the wells and the cells incubated with primary antibody at varying concentrations for 75 minutes at 37° C. After washing and cell fixation with 4% PFA, the binding of the antibodies is detected using a goat anti-human detection antibody, incubated for 1 hour at room temperature. Fluorescence at 488 nm is measured.
CHO-K1 cells were seeded in clear 96-well plates at 20,000 cells per 200 μL full growth medium and incubated for 24 hours at 37° C. The following day, in a sterile tube, 0.0309 uL/well PEI (Generon, MW 160,000) was diluted into 10 uL/well transfection medium (DMEM supplemented with 2 mM L-glutamine and Penicillin-Streptomycin). The diluted PEI was added to 100 ng/well DNA encoding the target protein (human LPAR1 (SEQ ID NO: 62) unless otherwise stated), before vortexing immediately and incubating the mixture for 10 minutes at room temperature. 200 μL/well full growth medium was added to the PEI-DNA mixture, then medium in wells was taken off and 200 ul full growth medium/PEI/DNA mixture was added in the wells of the adherent cell plate. The plate was incubated for 24 hours at 37° C. The next day, the medium was discarded and replaced with 200 μL full growth medium. The plate was incubated for 24 hours at 37° C. The following day, medium was removed from the wells and the cells incubated with primary antibody at varying concentrations for 75 minutes at 37° C. After washing and cell fixation with 4% PFA, the binding of the antibodies was detected using a goat anti-human Alexa Fluor 488 detection antibody (Invitrogen), incubated for 1 hour at room temperature. Fluorescence at 488 nm was measured using a BMG LABTECH ClarioStar plate reader and microscopy images were taken at 10× magnification.
as §1

Details of series [5]: species or system Sprague Dawley rats. To be noted: rat, in vivo, iv, 3 mg/kg. Here is the method:
The rat pharmacokinetics study was carried out in male Sprague Dawley rats (275-325 g). Rats received an IV slow bolus (3 mg/kg) of test antibody. Blood samples were taken at the following time-points: pre-dose, 2 min, 1 hour, 3 hours, 6 hours, 24 hours, 48 hours, 96 hours, 7 days, 14 days and 21 days after dosing. For each animal and for each blood sampling, 200 μL venous blood was obtained from the sublingual vein under isoflurane anaesthesia in K2EDTA vials. The blood samples were gently mixed, placed immediately on crushed ice and centrifuged within 30 min of sampling at approximately 1500×g for approximately 10 min at approximately 4° C. For each blood sample, the resulting plasma was separated into 2 aliquots of 30 μL and transferred, using disposable plastic material, into polypropylene tubes with conical bottom and stored at −80° C. until analysis by capture ELISA. Plates were coated overnight with 1 μg/mL capture IgG before washing and blocking with 3% (w/v) milk the next morning for 2 hours. […] Absorbance was measured on a plate reader at 450 nm. Antibody concentrations were calculated using interpolation off a standard curve constructed for each individual test IgG in Prism 5 (GraphPad Software, CA, USA). Interpolated data was analysed using Phoenix WinNonlin® version 8.1 (Certara USA, Inc., Princeton, NJ) to extract relevant PK parameters. […]

In series [6] the test system is renal fibrosis after UUO surgery. As to the kind of experiment: Unilateral ureteral obstruction (UUO) efficacy model of renal fibrosis. To be noted: Study 2. The format is in vivo, Hartley guinea pigs. The procedure:
Unilateral ureteral obstruction (UUO) is a well-characterized disease model for renal fibrosis. The UUO model encompasses key pathophysiological features of chronic kidney disease; tubular necrosis and inflammatory cell infiltration within a relatively short period.
Two unilateral ureteral obstruction (UUO) model efficacy studies were carried out in six-week old female Hartley guinea pigs. On Day 0, UUO surgery was performed. BMS-986020 was administered orally at a dose level of 30 mg/kg in a volume of 5 mL/kg twice daily at from Day −1 to 9. Isotype control and anti-LPAR1 antibody was intraperitoneally administered at a dose level of 6 mg/kg (low) or 20 mg/kg (high) in a volume of 10 mL/kg at Day −1, Day 0, Day 3 and Day 6. The viability, clinical signs, behaviour and individual body weight was monitored daily.
The animals were sacrificed at Day 10. The ligated left kidney and right kidney weight were measured at sacrifice.
Hydroxyproline is an amino acid, making up around 14% of collagen and acts as an important indicator of the severity of fibrosis. To quantify kidney hydroxyproline content, frozen posterior right section of left kidney samples were processed by an alkaline-acid hydrolysis method. AC buffer (2.2M acetic acid/0.48M citric acid) was added to the samples, followed by centrifugation to collect the supernatant. A standard curve of hydroxyproline was constructed with serial dilutions of trans-4-hydroxy-L-proline (Sigma-Aldrich, USA) starting at 16 μg/mL. The prepared samples and standards were mixed with chloramine T solution (Nacalai Tesque Inc., Japan) and incubated for 25 minutes at room temperature. The samples were then mixed with Ehrlich's solution and heated at 65° C. for 20 minutes to develop the colour. After samples were cooled on ice and centrifuged to remove precipitates, the optical density of each supernatant was measured at 560 nm. The concentrations of hydroxyproline were calculated from the hydroxyproline standard curve. Protein concentrations of kidney samples were determined using a BCA protein assay kit (Thermo Fisher Scientific, USA) and used to normalize the calculated hydroxyproline values. Kidney hydroxyproline contents were expressed as μg per mg protein.
The left kidney was fixed in Bouin's solution and embedded in paraffin. For PAS staining, sections were cut from paraffin blocks and stained with Schiff's reagent (FUJIFILM Wako pure chemical corporation, Japan) according to the manufacturer's instructions. To visualize collagen deposition, kidney sections were stained using picro-Sirius red solution (FUJIFILM Wako pure chemical corporation). For quantification of interstitial and medulla fibrosis area, bright field images in the corticomedullary region were captured using a digital camera (DFC295) at 200-fold magnification, and the positive areas in 5 fields/section were measured using ImageJ software (National Institute of Health, USA).

The nature of series [7]: Dose range-finding toxicity study, liver histopathology. To be noted: cynomolgus. The format is in vivo. Here is the method: A dose range-finding study was carried out to determine the potential toxicity of Antibody 17 when given by the intravenous (infusion) route to cynomolgus monkeys. The test item, Antibody 17, was administered to 8 animals via intravenous infusion (30 minutes) on Day 1 (Group 1) or on Days 1, 8 and 15 (Groups 2 to 4). Animals were split by sex, allocated into 4 groups and dosed with Antibody 17 at 10, 33 or 100 mg/kg/day.
A complete gross pathological examination, organ weight recording and microscopic evaluation were performed on the six animals that were given 3 doses of Antibody 17 (Groups 2 to 4) two days after the third dose.

The mark [8] stands for this setting: IV infusion, 10, 33 or 100 mg/kg/day.

T1 sequence (Q92633 whole entry): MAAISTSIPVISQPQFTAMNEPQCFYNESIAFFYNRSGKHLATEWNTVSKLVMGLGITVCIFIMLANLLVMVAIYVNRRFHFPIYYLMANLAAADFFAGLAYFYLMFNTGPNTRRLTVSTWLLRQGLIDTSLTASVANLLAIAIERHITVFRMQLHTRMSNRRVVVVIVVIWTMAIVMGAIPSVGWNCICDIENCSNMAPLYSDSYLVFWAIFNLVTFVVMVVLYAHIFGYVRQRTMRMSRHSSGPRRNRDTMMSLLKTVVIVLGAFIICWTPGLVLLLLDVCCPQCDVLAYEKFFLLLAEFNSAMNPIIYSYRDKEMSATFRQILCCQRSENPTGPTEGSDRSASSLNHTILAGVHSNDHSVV

B1: Antibody 12: LCDR2 mutation T56D; VH SEQ ID NO: 36, VL SEQ ID NO: 38 (antibody, V domains shown)
VH: QVQLVQSGSELKKPGASVKVSCKASGYTFTSSGISWVRQAPGQGLEWMGEILPRSGYTNYNQGFTGRFVFSADKSVSTAYLQISSLKAEDTAVYYCARDFKGGRYAMDYWGQGTTVTVSS
VL: SIQMTQSPSSLSASVGDRVTITCQASQSVRYNVAWYQQKPGKAPKLLIYYASNRYDGVPSRFSGSGSGTDFTFTISSLQPEDIATYFCQHHYSSPLTFGGGTKLEIK
Regarding B1, the “Irrelevant GPCR cell staining” value with Irrelevant GPCR is reported as “Irrelevant GPCR-No significant cell staining”. In addition, the “LPAR1 fixed cell staining” value in the series with LPAR1 [1] is “LPAR1-Significant fixed and live cell staining”. The mode of inhibition entry with LPAR1 [2] was “acting allosterically”. In the series with LPAR1 [2] (even at high concentrations), the “inhibition with LPA present compared to the system where LPA is absent” value is reported as “does not deliver equivalent inhibition”. For the same molecule, the “binding affinity for LPAR1” value in the series with LPAR1 [3] is “minimal effect on affinity”. Further, in the series with LPAR1 [4], the “LPAR1 live cell staining” value was “LPAR1-Significant fixed and live cell staining”. Besides, in series [5], the “mean Cmax” value was found to be 217.5 µg/mL.

B2: Antibody 17: Optimised antibody; VH SEQ ID NO: 102, VL SEQ ID NO: 99 (antibody, V domains shown)
VH: QVQLVQSGSELKKPGASVKVSCKASGYTFTSSGISWVRQAPGQGLEWMGEIQPRSGYTNYNQGFTGRFVFSADKSVSTAYLQISSLKAEDTAVYYCARDKGPARYTMDYWGQGTTVTVSS
VL: SIQMTQSPSSLSASVGDRVTITCQASQSVRYNVAWYQQKPGKAPKLLIYYASNRYEGVPSRFSGSGSGTDFTFTISSLQPEDIATYFCQHHYSSPLTFGGGTKLEIK
Regarding B2, in series [6], the histological picrosirius staining result is on record as “No observable difference”. The kidney hydroxyproline result in series [6] (BMS-986020 30 mg/kg oral vs vehicle, antibody 20 mg/kg (high) i.p. vs isotype antibody) is recorded as “significant reduction in hydroxyproline”. In addition, the histopathology findings result in series [7] (3 doses (Days 1, 8 and 15), two days after the third dose) is “no adverse findings”. In series [7] (setting [8]), the “adverse effects throughout the study” value is reported as “No adverse effects”, the “tolerability at the injection sites” value is recorded as “well tolerated” and the unscheduled deaths result is recorded as “no unscheduled deaths”. In addition, the “mean Cmax” value in series [5] came to 143.8 µg/mL.

(Values after patent US12599645B2, “Antibodies which bind to lysophosphatidic acid receptor 1 (LPAR1)” (DJS ANTIBODIES LTD, priority 2021, dated 2026).)
